Assay results: patent publication US6428781B1, “Composition of an endogenous insulin-like growth factor-II derivative” (Daiichi Pharmaceutical Co., Ltd., priority 1996, dated 2002)
Each block holds one compound with its values, some of them ahead of it.

Legend:
[1] = target: T1, rat IGFBP-3 (RBP-3 E. coli) (Rattus norvegicus, UniProt P15473); experiment: Solid-phase binding of HRP-IGF-II to immobilized IGFBP-3, competitive inhibition; conditions: for inhibitory activity against the binding of IGF-II to IGFBP-3 (RBP-3 E. coli): final concentration of each compound 100 μg/ml, compared to the other test compounds of Table 1
T1 construct: made in house; host or cells: Escherichia coli (periplasm)
T1 sequence (P15473 28-292): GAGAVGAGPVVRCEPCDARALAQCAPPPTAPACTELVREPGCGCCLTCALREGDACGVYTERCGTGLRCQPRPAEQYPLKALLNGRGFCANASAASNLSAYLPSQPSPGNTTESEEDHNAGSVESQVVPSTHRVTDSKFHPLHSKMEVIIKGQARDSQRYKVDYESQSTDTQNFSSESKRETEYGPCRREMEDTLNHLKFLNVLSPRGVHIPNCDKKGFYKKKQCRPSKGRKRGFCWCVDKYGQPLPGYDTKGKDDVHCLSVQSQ
Description: A 96-well microtiter plate manufactured by Costar Corp.; 50 mM sodium phosphate buffer (pH 6.5) as a basic buffer for immuobilization; basic buffer supplemented with 0.03% Tween 20, basic buffer supplementee with 1% BSA and basic buffer supplemented with 0.25% BSA an 0.03% Tween 20 were used in the washing, blocking and binding steps, respectively. After each reaction, wells were washed twice with 400 μl/well of buffer. Horseradish peroxidase-labeled IGF-II (hereinafter “HRP-IGF-II”) was prepared using a commercially available kit (PIERCE Chemichal Company).
To the microtiter plate, RBP-3 E. coli (150 ng/ml) was added in an amount of 50 μl/well and allowed to stand overnight at 4° C. for immobilization. After blocking, 50 μl/well of HRP-IGF-II (final concentration diluted 12,000-fold) was added at 25° C. for 2 hours in the presence or absence of a test compound. Test compounds at various concentrations were added to each well in a total volume of 50 μl.
In the final step, a solution of 2,2′-azino-bis(3-ethylbenzthiazoline-6-sulfonic acid) (hereinafter “ABTS”; Kirkegaard & Perry Laboratories) was added to each well (100 μl/well) and allowed to stand at room temperature. The absorbance (O.D.) at 405 nm was measured on a plate reader (“VMAX™”, Molecular Devices).
The absorbance in the absence of a test compound is designated “B0”, and in the presence of a test compound is designated as “B”. The absorbance in the absence of both a test compound and using a non-immobilized well (a well not containing RBP-3 E. coli) is designated as nonspecific bound (NSB). The percent binding of labeled IGF-II to immobilized IGFBP-3 in the presence of a test compound is calculated from the following equation: […]
The binding reactions for each of the test compounds, was performed triplicate. The average value is plotted and the SD value is indicated with a bar (refer to FIG. 8).
Each compound was dissolved or suspended in basic buffer containing 5% methanol at a final concentration of 1 mg/ml. The resulting solution or suspension was diluted with the reaction buffer 5-fold or to a final concentration of 200 μg/ml. The final concentration of each compound at the time of measurement was 100 μg/ml.
The percent binding of IGF-II to IGFBP-3 (RBP-3 E. coli) in the presence of a test compound was calculated using the following formula:
“percent total bound (100(%))−percent actual bound (%)”=percent inhibitory activity (%) of the test specimen.
Measurements for each of the test compounds were performed twice, and the average inhibitory activity was determined.

[2] = Evaluation of blood lipid level (1), nonfasting SD rats; type: in vivo; conditions: plasma; for total glyceride concentration 6 hours after administration, compared to negative control: IGF-I 50 μg/kg s.c., anti-RBP-3 pAb #35 20 mg/head i.p.; for total glyceride concentration 6 hours after administration, compared to negative control / total cholesterol concentration 24 hours after administration, compared to negative control: [Leu27, Leu43]rIGF-II 1,000 μg/kg s.c.
Description: [Leu27, Leu43]rIGF-II (1,000 μg/kg) was administered, subcutaneously, to a group of nonfasting SD rats (n=3, 8 weeks old, male, average weight: 300 g, purchased from Charles River Japan).
Anti-RBP-3 pAb #35 (20 mg/head) was administered, intraperitoneally, to another group of SD rats.
As a negative control, physiological saline (500 μl/head) was administered, subcutaneously, and as a positive control group, IGF-I (50 μg/kg, 200 μg/kg) was administered, subcutaneously.
About 500 μl of blood was sequentially collected into EDTA-coated glass tubes from the caudal vein. Thirty minutes after collection, the blood was centrifuged (3,500 rpm×12 mm 25° C.), and plasma supernatant was recovered and stored at −80° C. until assayed. The total cholesterol and total triglyceride concentrations of the plasma were measured in accordance with a “Hitachi 715 model” automatic analyzer using the enzyme method of “Autocera CH02 and TG2” (each, manufactured by Daiichi Pure Chemicals Co., Ltd.).

[3] = adult humans, intravenous injection, 100 μg/kg; Guler et al. 1987; cited from earlier work
[4] = target: T2, human placental IGF-I receptor (Homo sapiens, UniProt P08069); experiment: IGF-I receptor radioreceptor binding assay with 125I-IGF-I
T2 construct: human placental IGF-I receptor; from tissue; host or cells: human placenta
Description: (§1) The [Leu27, Leu43]rIGF-II derivative described in Example 8, was characterized for its binding affinity to human placental IGF-I receptor and human placental insulin receptor using a radioreceptor assay (Le Bon, T. R., et al., J. Biol. Chem., 261, 7685 (1986); Fujita-Yamaguchi, Y., et al., J. Biol. Chem., 258, 5045 (1983)).
(§2) In the first step, ^125I-IGF (or ^125I-insulin) (Amersham International plc) in an amount of 2×10^4 cpm was incubated with various amounts of the IGF receptor or the insulin receptor, to determine an amount of the receptor to which 50% of ^125I-IGF (or ^125I-insulin) binds.
(§3) [Leu27, Leu43]rIGF-II was added at various concentrations to aliquots of the mixture containing the determined amount of the receptor and ^125I-IGF (or ^125I-insulin) (2×10^4 cpm). The final volume of the reaction mix was brought to […] using a 50 mM Tris-HCl buffer (pH 7.4) containing 0.1% BSA and 0.075% Triton X-100, and allowed to incubate overnight at 4° C. […] The reaction mixture was centrifuged (3000 rpm×30 min, 4° C.), the supernatant decanted, and the cpm value for the pellet was measured by gamma counting. […]
(§4) The cpm value in the absence of a receptor is designated as nonspecific bound (NSB). […] The percent binding to a receptor is calculated from the following equation: […]

[5] = target: T3, human placental insulin receptor (Homo sapiens, UniProt P06213); experiment: Insulin receptor radioreceptor binding assay with 125I-insulin
T3 construct: human placental insulin receptor; from tissue; host or cells: human placenta
Description: as §1, §2, §3, §4

IGF-I receptor = IGF-I receptor (Homo sapiens, UniProt P08069); conditions: Sakano et al. 1991; cited from earlier work
IGFBP-3 = IGFBP-3 (Homo sapiens, UniProt P17936); conditions: Bach et al. 1993; cited from earlier work
Chain of IGFBP-3 (P17936 28-291, species assumed): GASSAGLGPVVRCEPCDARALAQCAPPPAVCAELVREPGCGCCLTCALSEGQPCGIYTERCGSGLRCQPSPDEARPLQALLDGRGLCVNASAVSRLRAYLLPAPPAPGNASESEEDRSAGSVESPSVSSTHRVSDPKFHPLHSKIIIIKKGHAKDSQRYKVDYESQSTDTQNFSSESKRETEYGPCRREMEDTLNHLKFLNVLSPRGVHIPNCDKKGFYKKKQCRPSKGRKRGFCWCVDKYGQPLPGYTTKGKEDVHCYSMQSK

insulin receptor = insulin receptor (Homo sapiens, UniProt P06213); conditions: Sakano et al. 1991; cited from earlier work
cell proliferation = conditions: Sakano et al. 1991; cited from earlier work
[6] = target: IGF-II/cation-independent mannose-6-phosphate receptor (Homo sapiens, UniProt P11717); conditions: Sakano et al. 1991; cited from earlier work
Chain of IGF-II/cation-independent mannose-6-phosphate receptor (P11717 41-2491): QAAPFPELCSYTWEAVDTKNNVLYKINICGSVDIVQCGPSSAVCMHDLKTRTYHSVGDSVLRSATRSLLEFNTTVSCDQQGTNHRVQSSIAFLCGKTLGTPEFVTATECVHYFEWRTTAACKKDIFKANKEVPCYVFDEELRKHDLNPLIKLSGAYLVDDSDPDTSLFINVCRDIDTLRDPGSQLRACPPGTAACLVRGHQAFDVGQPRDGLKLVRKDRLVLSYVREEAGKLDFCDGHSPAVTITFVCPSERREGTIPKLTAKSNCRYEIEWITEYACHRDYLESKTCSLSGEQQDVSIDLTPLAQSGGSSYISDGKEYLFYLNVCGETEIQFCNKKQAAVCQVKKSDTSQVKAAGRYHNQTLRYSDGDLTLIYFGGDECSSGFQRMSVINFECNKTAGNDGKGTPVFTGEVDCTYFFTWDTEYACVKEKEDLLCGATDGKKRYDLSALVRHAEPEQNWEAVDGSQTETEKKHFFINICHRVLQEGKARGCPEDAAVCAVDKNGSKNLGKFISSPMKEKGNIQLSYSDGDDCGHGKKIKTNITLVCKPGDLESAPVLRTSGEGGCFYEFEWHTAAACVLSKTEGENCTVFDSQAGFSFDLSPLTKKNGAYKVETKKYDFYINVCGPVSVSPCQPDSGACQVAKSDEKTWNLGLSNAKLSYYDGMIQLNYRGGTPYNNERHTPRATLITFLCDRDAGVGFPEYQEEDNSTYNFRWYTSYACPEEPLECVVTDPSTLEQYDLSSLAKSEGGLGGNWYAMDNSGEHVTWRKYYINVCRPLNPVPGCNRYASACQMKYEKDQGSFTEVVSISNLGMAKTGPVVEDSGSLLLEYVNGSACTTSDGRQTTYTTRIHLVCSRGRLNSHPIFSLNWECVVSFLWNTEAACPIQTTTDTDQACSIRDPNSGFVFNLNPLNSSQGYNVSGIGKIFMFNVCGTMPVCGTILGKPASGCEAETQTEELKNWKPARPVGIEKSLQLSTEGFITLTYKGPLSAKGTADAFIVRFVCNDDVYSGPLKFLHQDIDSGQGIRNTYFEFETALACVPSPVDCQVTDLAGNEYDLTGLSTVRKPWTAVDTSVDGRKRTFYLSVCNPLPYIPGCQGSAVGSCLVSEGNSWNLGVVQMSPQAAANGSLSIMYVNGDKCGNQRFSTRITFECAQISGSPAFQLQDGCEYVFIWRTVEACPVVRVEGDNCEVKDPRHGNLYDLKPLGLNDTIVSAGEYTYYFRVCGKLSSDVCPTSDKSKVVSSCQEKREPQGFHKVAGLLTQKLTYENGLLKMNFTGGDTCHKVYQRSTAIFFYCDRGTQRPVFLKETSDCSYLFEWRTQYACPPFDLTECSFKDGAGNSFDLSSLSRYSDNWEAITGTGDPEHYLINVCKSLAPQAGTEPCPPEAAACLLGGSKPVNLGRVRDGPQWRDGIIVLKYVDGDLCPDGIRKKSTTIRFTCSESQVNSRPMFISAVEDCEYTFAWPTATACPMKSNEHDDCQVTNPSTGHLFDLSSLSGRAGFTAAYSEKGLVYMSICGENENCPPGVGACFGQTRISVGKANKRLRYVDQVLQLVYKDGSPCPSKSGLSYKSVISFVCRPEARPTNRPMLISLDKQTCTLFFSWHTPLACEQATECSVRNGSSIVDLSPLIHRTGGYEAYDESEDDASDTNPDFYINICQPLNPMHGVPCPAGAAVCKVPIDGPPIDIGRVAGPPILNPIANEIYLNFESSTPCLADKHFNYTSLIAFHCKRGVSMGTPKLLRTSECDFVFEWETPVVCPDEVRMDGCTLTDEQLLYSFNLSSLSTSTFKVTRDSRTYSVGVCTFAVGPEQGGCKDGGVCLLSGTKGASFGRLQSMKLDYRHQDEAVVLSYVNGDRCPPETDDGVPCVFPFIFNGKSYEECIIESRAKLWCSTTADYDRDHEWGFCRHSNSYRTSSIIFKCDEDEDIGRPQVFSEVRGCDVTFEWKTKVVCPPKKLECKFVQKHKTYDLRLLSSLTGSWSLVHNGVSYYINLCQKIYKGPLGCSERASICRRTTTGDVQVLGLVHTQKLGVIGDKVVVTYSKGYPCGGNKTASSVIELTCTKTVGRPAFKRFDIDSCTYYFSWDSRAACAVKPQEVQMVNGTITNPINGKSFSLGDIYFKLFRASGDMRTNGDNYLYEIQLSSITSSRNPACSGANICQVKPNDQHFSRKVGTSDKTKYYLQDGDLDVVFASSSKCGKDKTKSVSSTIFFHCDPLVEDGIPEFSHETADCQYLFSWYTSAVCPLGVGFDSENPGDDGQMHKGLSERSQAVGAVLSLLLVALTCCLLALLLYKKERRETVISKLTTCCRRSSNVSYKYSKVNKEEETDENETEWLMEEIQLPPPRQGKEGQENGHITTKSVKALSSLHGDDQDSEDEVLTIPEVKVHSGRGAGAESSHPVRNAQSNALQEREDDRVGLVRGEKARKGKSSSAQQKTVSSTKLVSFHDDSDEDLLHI

inhibitory activity against the binding of IGF-II to IGFBP-3 (RBP-3 E. coli) [1]: potent inhibitory activity
Compound: O=c1oc2c(O)c(O)cc3c(=O)oc4c(O)c(O)cc1c4c23 [Compound 27, Ellagic acid]

Compound: CC[C@@]1(O)C[C@H](O[C@H]2C[C@H](N(C)C)[C@H](O[C@H]3C[C@H](O)[C@H](O[C@H]4CCC(=O)[C@H](C)O4)[C@H](C)O3)[C@H](C)O2)c2c(cc3c(c2O)C(=O)c2c(O)cccc2C3=O)[C@H]1C(=O)OC [Compound 29, Aclacinomycin A]
inhibitory activity against the binding of IGF-II to IGFBP-3 (RBP-3 E. coli) [1]: potent inhibitory activity

inhibitory activity against the binding of IGF-II to IGFBP-3 (RBP-3 E. coli) [1]: potent inhibitory activity
Compound: Heparin [Compound 31]

Compound: IGF-I: Human IGF-I purchased from GroPep Pty. Ltd.; positive control
total glyceride concentration 6 hours after administration, compared to negative control [2]: significantly decreased | total cholesterol concentration 6 hours after administration, compared to negative control ([2]; IGF-I 200 μg/kg s.c.): significantly decreased | total cholesterol concentration 24 hours after administration, compared to negative control ([2]; IGF-I 200 μg/kg s.c.): significantly decreased | blood glucose levels [3]: lowering of blood glucose levels | time of lowest blood glucose level after injection [3]: 20 min

affinity for IGFBP-3 [1]: has affinity for IGFBP-3 | affinity for / binding to the IGF-I receptor [4]: little or no binding | affinity for the IGF-I receptor, as % of that for IGF-I [4]: 1 to 2% | affinity for / binding to the insulin receptor [5]: little or no binding | affinity for the insulin receptor, as % of that for insulin [5]: 1 to 2%
Compound: [Leu27, Leu43]rIGF-II: human IGF-II derivative; tyrosine at residue 27 and valine at residue 43 each replaced with leucine
inhibition of the binding of IGF (labeled IGF-II) and immobilized IGFBP-3 ([1]; procedure of Example 10): at concentrations similar to those seen for IGF-II | total glyceride concentration 6 hours after administration, compared to negative control [2]: tendency toward lowering | total cholesterol concentration 24 hours after administration, compared to negative control ([2]; IGF-I 200 μg/kg s.c.): significant decrease

Compound: [Leu 27] rIGF-II: human IGF-II derivative with a single amino acid substitution (Leu at position 27), from the literature
binding to the IGF-I receptor (IGF-I receptor): almost no binding | binding to IGFBP-3 compared to wild type (IGFBP-3): almost similar to the wild type | binding to the insulin receptor (insulin receptor): almost no binding | effect on cell proliferation (cell proliferation): significantly lowered effect | binding to the IGF-II/cation-independent mannose-6-phosphate receptor [6]: bind

Compound: [Leu 43] rIGF-II: human IGF-II derivative with a single amino acid substitution (Leu at position 43), from the literature
binding to the IGF-I receptor (IGF-I receptor): almost no binding | binding to IGFBP-3 compared to wild type (IGFBP-3): almost similar to the wild type | binding to the insulin receptor (insulin receptor): almost no binding | effect on cell proliferation (cell proliferation): significantly lowered effect | binding to the IGF-II/cation-independent mannose-6-phosphate receptor [6]: bind
